How the values were obtained:
[1] = molecular target: GST-dynein_(331 kDa) (S. cerevisiae) (UniProt P36022)
[2] = molecular target: GST-dynein_(331 kDa) (S. cerevisiae) (UniProt P36022); remark: listed apart in the source

Sequence of GST-dynein_(331 kDa) (S. cerevisiae) (P36022 whole entry): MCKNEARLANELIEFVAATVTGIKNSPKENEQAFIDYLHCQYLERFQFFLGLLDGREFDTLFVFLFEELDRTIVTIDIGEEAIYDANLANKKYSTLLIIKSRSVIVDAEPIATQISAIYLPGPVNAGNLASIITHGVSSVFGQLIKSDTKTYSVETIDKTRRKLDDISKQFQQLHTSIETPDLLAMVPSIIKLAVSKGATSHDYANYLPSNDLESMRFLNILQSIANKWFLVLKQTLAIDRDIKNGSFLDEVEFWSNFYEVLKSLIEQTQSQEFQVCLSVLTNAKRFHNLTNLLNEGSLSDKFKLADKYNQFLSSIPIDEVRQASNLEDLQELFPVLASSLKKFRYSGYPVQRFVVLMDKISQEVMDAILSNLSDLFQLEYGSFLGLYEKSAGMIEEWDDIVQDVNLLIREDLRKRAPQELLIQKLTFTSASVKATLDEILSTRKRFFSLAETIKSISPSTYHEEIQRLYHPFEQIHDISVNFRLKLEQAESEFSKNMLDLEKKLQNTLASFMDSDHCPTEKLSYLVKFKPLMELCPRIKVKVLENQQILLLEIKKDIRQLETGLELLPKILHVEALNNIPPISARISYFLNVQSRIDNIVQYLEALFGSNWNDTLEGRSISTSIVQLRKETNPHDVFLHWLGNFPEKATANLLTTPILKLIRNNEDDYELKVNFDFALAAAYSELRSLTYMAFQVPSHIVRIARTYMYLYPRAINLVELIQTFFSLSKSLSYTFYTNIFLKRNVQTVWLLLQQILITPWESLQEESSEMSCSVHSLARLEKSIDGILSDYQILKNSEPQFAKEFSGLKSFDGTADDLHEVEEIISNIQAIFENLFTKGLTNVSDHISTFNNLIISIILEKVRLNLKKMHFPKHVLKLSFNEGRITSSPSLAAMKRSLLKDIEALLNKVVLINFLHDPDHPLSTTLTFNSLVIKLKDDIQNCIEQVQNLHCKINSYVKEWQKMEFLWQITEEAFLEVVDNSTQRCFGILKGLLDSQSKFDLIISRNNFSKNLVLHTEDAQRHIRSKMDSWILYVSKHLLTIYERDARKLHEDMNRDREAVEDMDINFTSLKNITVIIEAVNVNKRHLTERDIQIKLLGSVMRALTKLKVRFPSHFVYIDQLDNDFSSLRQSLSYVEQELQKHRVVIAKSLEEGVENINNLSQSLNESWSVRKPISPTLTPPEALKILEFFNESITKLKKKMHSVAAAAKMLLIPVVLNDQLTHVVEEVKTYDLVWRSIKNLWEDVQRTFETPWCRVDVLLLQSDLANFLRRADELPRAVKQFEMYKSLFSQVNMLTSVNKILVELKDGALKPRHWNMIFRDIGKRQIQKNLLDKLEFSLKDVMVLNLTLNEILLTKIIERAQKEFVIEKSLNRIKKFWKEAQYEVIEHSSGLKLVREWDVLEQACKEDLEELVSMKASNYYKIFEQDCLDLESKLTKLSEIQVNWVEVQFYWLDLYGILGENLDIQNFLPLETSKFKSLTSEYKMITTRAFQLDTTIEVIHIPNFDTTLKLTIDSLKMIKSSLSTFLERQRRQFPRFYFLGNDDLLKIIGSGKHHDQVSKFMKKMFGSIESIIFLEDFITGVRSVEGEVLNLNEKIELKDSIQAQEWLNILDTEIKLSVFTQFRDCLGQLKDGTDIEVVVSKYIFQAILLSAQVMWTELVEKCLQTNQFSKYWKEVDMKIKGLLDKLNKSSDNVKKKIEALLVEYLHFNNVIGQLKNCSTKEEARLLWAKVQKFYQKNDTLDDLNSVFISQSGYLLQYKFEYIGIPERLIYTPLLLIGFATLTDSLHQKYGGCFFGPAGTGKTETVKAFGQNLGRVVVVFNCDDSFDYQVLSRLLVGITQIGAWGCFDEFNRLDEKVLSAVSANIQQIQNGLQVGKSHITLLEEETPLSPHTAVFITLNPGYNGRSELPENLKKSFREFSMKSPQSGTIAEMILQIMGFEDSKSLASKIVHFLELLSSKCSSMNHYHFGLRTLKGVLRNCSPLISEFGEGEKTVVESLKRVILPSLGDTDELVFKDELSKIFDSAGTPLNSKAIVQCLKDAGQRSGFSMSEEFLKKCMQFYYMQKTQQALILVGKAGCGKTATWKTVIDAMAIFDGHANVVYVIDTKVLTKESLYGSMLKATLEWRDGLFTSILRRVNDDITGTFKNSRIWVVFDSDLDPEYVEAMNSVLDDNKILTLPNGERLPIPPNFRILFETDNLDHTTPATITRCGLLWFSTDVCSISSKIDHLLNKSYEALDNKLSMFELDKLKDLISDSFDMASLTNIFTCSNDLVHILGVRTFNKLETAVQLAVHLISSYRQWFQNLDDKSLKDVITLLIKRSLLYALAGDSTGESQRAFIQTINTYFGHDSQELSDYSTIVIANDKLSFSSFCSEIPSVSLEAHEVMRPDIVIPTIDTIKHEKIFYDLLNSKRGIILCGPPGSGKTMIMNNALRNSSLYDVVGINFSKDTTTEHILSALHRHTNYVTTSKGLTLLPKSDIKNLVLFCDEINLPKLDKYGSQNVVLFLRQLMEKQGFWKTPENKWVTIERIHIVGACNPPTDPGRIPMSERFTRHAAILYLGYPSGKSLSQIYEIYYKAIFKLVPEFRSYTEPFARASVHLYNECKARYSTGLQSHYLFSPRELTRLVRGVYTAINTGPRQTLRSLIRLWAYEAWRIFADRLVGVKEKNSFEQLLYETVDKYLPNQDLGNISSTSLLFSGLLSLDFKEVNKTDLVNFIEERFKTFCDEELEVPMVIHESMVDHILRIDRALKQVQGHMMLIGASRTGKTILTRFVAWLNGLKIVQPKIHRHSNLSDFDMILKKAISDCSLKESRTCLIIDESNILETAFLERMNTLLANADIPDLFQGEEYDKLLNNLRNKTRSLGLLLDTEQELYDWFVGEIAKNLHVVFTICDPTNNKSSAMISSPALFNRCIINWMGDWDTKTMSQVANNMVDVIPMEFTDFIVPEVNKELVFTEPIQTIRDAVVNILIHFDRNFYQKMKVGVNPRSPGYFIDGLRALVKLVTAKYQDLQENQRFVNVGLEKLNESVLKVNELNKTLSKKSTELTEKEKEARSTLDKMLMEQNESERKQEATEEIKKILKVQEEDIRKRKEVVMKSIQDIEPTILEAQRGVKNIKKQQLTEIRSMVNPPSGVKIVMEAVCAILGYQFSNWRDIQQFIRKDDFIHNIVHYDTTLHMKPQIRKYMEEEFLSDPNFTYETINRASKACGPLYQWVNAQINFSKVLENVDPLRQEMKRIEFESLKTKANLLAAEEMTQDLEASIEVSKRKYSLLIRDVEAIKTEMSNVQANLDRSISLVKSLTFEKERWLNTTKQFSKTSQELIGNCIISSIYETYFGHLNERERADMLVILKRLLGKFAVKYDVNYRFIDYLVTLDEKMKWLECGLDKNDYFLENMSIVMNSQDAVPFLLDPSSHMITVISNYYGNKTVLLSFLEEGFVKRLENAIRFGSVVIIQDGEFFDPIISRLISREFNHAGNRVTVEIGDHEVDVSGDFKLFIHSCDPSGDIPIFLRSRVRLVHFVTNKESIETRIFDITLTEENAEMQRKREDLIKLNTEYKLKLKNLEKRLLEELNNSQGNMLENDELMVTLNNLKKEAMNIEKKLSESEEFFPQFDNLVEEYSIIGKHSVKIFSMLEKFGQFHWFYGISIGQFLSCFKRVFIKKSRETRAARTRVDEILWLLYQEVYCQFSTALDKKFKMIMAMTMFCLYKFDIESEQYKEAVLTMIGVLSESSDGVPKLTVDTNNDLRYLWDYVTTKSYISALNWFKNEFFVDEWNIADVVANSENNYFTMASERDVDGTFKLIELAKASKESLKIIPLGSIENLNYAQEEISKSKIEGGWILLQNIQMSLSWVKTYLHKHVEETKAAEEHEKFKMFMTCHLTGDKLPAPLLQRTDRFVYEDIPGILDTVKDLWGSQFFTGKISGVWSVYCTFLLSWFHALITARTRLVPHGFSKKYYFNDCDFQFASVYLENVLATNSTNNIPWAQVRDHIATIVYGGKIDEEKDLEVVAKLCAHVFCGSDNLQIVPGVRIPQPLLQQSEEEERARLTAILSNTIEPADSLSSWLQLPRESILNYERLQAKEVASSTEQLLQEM

- K1/2: Lis1 concentration for half-maximal reduction of single-molecule GST-dynein (331 kDa) velocity [1]: 15.3 nM
- K1/2: Lis1 concentration for half-maximal velocity reduction (experiment with the AAA4 mutants) [2]: 15.7 nM
B1: Lis1 (S. cerevisiae Pac1) (natural protein)
chain: MTNWQQQLPLTDTQKNELDKSVLRYLNWNYKQTVRHEHAQDYESVRHAIVTLSGFLLQESVDRQEFISNNDTSNESMVDIDELLLPKKWNSIVRLQKKIIELEQNTETLVSQIKDLNTQVSELAQFKPTTSNGTSAHNVLKWIPRNLPSCLINVESSVTSVKLHPNLPIVFVATDHGKLYAFDLFNYTIPLASLQSHTKAITSMDVLFTNYTNSSKKNYLVIVTASKDLQIHVFKWVSEECKFQQIRSLLGHEHIVSAVKIWQKNNDVHIASCSRDQTVKIWDFHNGWSLKTFQPHSQWVRSIDVLGDYIISGSHDTTLRLTHWPSGNGLSVGTGHEFPIEKVKFIHFIEDSPEIRFRTPSTDRYKNWGMQYCVSASRDRTIKIWEIPLPTLMAHRAPIPNPTDSNFRCVLTLKGHLSWVRDISIRGQYLFSCADDKSVRCWDLNTGQCLHVWEKLHTGFVNCLDLDVDFDSNVTPRQMMVTGGLDCKSNVFMR

From paper PMC3438448
